Assay results from paper PMC12698673 (Communications Biology, 2025).
Ends that are not written are not given here. * marks the point of attachment. MTSL = CC1(C)C=C(CS*)C(C)(C)N1[O]

B1: CBP-KIX MLLmut (I660A and L664A) (domain or fragment)
chain: not shown
B2: CBP-KIX c-Mybmut (Y650A, A654Q, and Y658A) (domain or fragment)
chain: not shown
B3: FOXO4-CR3 (conserved region 3, transactivation domain of FOXO4, aa 469–505) (domain or fragment, UniProt P98177 469-505, looked up)
chain: DLDLDMYMENLECDMDNIISDLMDEGEGLDFNFEPDP

How the values were obtained:
[1] = biological target: B3; assay: ITC
[2] = biological target: KIX domain of CBP (CBP-KIX, aa 586–672) (UniProt P45481 586-672); assay: ITC
Chain of KIX domain of CBP (CBP-KIX, aa 586–672) (P45481 586-672): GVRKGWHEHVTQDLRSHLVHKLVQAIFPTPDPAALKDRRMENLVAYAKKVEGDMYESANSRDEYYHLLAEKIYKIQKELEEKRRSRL

[3] = biological target: B1; assay: ITC
[4] = biological target: B2; assay: ITC
[5] = biological target: B2; assay: NMR titration
[6] = biological target: B2; assay: paramagnetic relaxation enhancement

For B1, which dH [1] is on record?
The dH was -4.58 kcal/mol.

For B2, which dH [1] is on record?
Its dH is -1.43 kcal/mol.

With B3 as the binder, how does the Kd [2] read?
The Kd was 3.35 ± 0.14 µM.

What about the Kd [3] of the same binder?
Its Kd is 2.76 µM.

And the Kd [4]?
Its Kd is 1.2 µM.

Does DLDLDMYMENLECDMDNIISDLADEGEGLDFNFEPDP (domain or fragment, UniProt P98177 469-505, looked up) [FOXO4-CR3 M491A] bind [5]?
Result: binds

Does DLDLDMYMENLEC(MTSL)DMDNIISDLMDEGEGLDFNFEPDP (domain or fragment, UniProt P98177 469-505, looked up) [FOXO4-CR3 labelled with MTSL at C481] bind [6]?
Result: binds
